Source: US20260125454A1 (SHANGHAI JUNSHI BIOSCIENCES, published 2026)

T1: Biotin-huCGRPaSA (human, not fully specified; biotin (position not given))
T1 construct: exact construct ('aSA') not explained; also called Biotin CGRPaSA; full-length (1-37) CGRP
T1 peptide: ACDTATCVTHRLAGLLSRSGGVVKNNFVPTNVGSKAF

B1: hu80 (antibody, V domains shown)
VH: QVQLVQSGAEVKKPGASVKVSCKASGYTFIDFNMHWVRQAPGQRLEWMGYIYPYNADVVYNQDFTNRVTLTVDTSSSTAYMELSSLRSEDTAVYYCAREGLGGYWGQGTLVTVSS
VL: DIVLTQSPASLAVSPGQRATITCKASQNIDYDGYAYLNWYQQKPGQPPKVLIYSVFNLESGVPARFSGSGSGTDFTLTINPVEADDTANYYCQQSNEFPYTFGQGTKLEIK
notes: 1F5 HC-5/1A2 LC2-2
B2: hu132 (antibody, V domains shown)
VH: QVQLVQSGAEVKKPGASVKVSCKASGYTFTDYNMHWVRQAPGQGLEWMGNIYPYNAGTVYNQKFNNRVTLTVDTSSSTAYMELSRLRSDDTAVYYCAREGLGGYWGQGTLVTVSS
VL: DIVLTQSPASLAVSPGQRATITCKASQNIDYDGYAYLNWYQQKPGQPPKVLIYSVFNLESGVPARFSGSGSGTDFTLTINPVEADDTANYYCQQSNEFPYTFGQGTKLEIK
notes: 2B8 HC1-3/1A2 LC2-2
B3: hu158 (antibody, V domains shown)
VH: QVQLVQSGAEVKKPGASVKVSCKASGYTFTDYNMHWVRQAPGQRLEWMGYISPYNGGTAYNQKFKFRVTLTVDTSSSTAYMELSSLRSEDTAVYYCAREGLGGYWGQGTLVTVSS
VL: DIVLTQSPASLAVSPGQRATITCKASQNIDYDGYAYLNWYQQKPGQPPKVLIYSVFNLESGVPARFSGSGSGTDFTLTINPVEADDTANYYCQQSNEFPYTFGQGTKLEIK
notes: 3E5 HC-2/1A2 LC2-2
B4: hu183 (antibody, V domains shown)
VH: QVQLVQSGAEVKKPGASVKVSCKTSGYTFTDYNMHWVRQAPGQRLEWMGYISPYNAGTAYNQKFKFRVTLTVDTSSSTAYMELSSLRSEDTAVYYCAREGLGGYWGQGTLVTVSS
VL: DIVLTQSPASLAVSPGQRATITCKASQNIDYDGYAYLNWYQQKPGQPPKVLIYSVFNLESGVPARFSGSGSGTDFTLTINPVEANDTANYYCQQSNEFPYTFGQGTKLEIK
notes: 3E5 HC-4/1A2 LC2-1
B5: hu105 (antibody, V domains shown)
VH: QVQLVQSGAEVKKPGASVKVSCKASGYTFTDYNMHWVRQAPGQGLEWMGNIYPYNGGTVYNQKFNNRVTLTVDTSSSTAYMELSRLRSDDTAVYYCAREGLGGYWGQGTLVTVSS
VL: DIVLTQSPASLAVSPGQRATITCKASQNIDYDGYAYLNWYQQKPGQPPKVLIYSVFNLESGVPARFSGSGSGTDFTLTINPVEANDTANYYCQQSNEFPYTFGQGTKLEIK
notes: 2B8 HC1-1/1A2 LC2-1
B6: hu92 (antibody, V domains shown)
VH: QVQLVQSGAEVKKPGASVKVSCKASGYTFTDYNMHWVRQAPGQRLEWMGYVYPYNGGSAYNQKFKSRVTLTVDTSSSTAYMELSSLRSEDTAVYYCAREGLGGYWGQGTLVTVSS
VL: DIVLTQSPASLAVSPGQRATITCKASQNIDYDGYAYLNWYQQKPGQPPKVLIYSVFNLESGVPARFSGSGSGTDFTLTINPVEANDTANYYCQQSNEFPYTFGQGTKLEIK
notes: 2A2 HC-1/1A2 LC2-1
B7: hu176 (antibody, V domains shown)
VH: QVQLVQSGAEVKKPGASVKVSCKASGYTFTDYNMHWVRQAPGQGLEWMGYISPYNGGTAYNQKFKFRVTLTVDTSSSTAYMELSRLRSDDTVVYYCAREGLGGYWGQGTLVTVSS
VL: DIVLTQSPASLAVSPGQRATITCKASQNIDFDGYAYMNWYQQKPGQPPKVLIYSVFNLESGVPARFSGSGSGTDFTLTINPVEADDTANYYCQQSHEVPYTFGQGTKLEIK
notes: 3E5 HC-3/1F5 LC1-3
B8: hu171 (antibody, V domains shown)
VH: QVQLVQSGAEVKKPGASVKVSCKASGYTFTDYNMHWVRQAPGQGLEWMGYISPYNGGTAYNQKFKFRVTLTVDTSSSTAYMELSRLRSDDTVVYYCAREGLGGYWGQGTLVTVSS
VL: DIVLTQSPASLAVSPGQRATITCKASQNIDYDGYAYLNWYQQKPGQPPKVLIYSVFNLESGVPARFSGSGSGTDFTLTINPVEADDTANYYCQQSNEFPYTFGQGTKLEIK
notes: 3E5 HC-3/1A2 LC2-2
B9: hu157 (antibody, V domains shown)
VH: QVQLVQSGAEVKKPGASVKVSCKASGYTFTDYNMHWVRQAPGQRLEWMGYISPYNGGTAYNQKFKFRVTLTVDTSSSTAYMELSSLRSEDTAVYYCAREGLGGYWGQGTLVTVSS
VL: DIVLTQSPASLAVSPGQRATITCKASQNIDYDGYAYLNWYQQKPGQPPKVLIYSVFNLESGVPARFSGSGSGTDFTLTINPVEANDTANYYCQQSNEFPYTFGQGTKLEIK
notes: 3E5 HC-2/1A2 LC2-1
B10: hu144 (antibody, V domains shown)
VH: QVQLVQSGAEVKKPGASVKVSCKTSGYTFTDYNMHWVRQAPGQRLEWMGYISPYNGGTAYNQKFKFRVTLTVDTSSSTAYMELSSLRSEDTAVYYCAREGLGGYWGQGTLVTVSS
VL: DIVLTQSPASLAVSPGQRATITCKASQNIDYDGYAYLNWYQQKPGQPPKVLIYSVFNLESGVPARFSGSGSGTDFTLTINPVEANDTANYYCQQSNEFPYTFGQGTKLEIK
notes: 3E5 HC-1/1A2 LC2-1
B11: hu106 (antibody, V domains shown)
VH: QVQLVQSGAEVKKPGASVKVSCKASGYTFTDYNMHWVRQAPGQGLEWMGNIYPYNGGTVYNQKFNNRVTLTVDTSSSTAYMELSRLRSDDTAVYYCAREGLGGYWGQGTLVTVSS
VL: DIVLTQSPASLAVSPGQRATITCKASQNIDYDGYAYLNWYQQKPGQPPKVLIYSVFNLESGVPARFSGSGSGTDFTLTINPVEADDTANYYCQQSNEFPYTFGQGTKLEIK
notes: 2B8 HC1-1/1A2 LC2-2
B12: hu163 (antibody, V domains shown)
VH: QVQLVQSGAEVKKPGASVKVSCKASGYTFTDYNMHWVRQAPGQRLEWMGYISPYNGGTAYNQKFKFRVTLTVDTSSSTAYMELSSLRSEDTAVYYCAREGLGGYWGQGTLVTVSS
VL: DIVLTQSPASLAVSPGQRATITCKASQNIDFDGYAYMNWYQQKPGQPPKVLIYSVFNLESGVPARFSGSGSGTDFTLTINPVEADDTANYYCQQSHEVPYTFGQGTKLEIK
notes: 3E5 HC-2/1F5 LC1-3
B13: hu111 (antibody, V domains shown)
VH: QVQLVQSGAEVKKPGASVKVSCKASGYTFTDYNMHWVRQAPGQGLEWMGNIYPYNGGTVYNQKFNNRVTLTVDTSSSTAYMELSRLRSDDTAVYYCAREGLGGYWGQGTLVTVSS
VL: DIVLTQSPASLAVSPGQRATITCKASQNIDFDGYAYMNWYQQKPGQPPKVLIYSVFNLESGVPARFSGSGSGTDFTLTINPVEADDTANYYCQQSHEVPYTFGQGTKLEIK
notes: 2B8 HC1-1/1F5 LC1-3
B14: hu124 (antibody, V domains shown)
VH: QVQLVQSGAEVKKPGASVKVSCKASGYTFTDYNMHWVRQAPGQGLEWMGNIYPYNGGTVYNQKFNNRVTLTVDTSSSTAYMELRSLRSDDTAVYYCAREGLGGYWGQGTLVTVSS
VL: DIVLTQSPASLAVSPGQRATITCKASQNIDFDGYAYMNWYQQKPGQPPKVLIYSVFNLESGVPARFSGSGSGTDFTLTINPVEADDTANYYCQQSHEVPYTFGQGTKLEIK
notes: 2B8 HC1-2/1F5 LC1-3
B15: hu119 (antibody, V domains shown)
VH: QVQLVQSGAEVKKPGASVKVSCKASGYTFTDYNMHWVRQAPGQGLEWMGNIYPYNGGTVYNQKFNNRVTLTVDTSSSTAYMELRSLRSDDTAVYYCAREGLGGYWGQGTLVTVSS
VL: DIVLTQSPASLAVSPGQRATITCKASQNIDYDGYAYLNWYQQKPGQPPKVLIYSVFNLESGVPARFSGSGSGTDFTLTINPVEADDTANYYCQQSNEFPYTFGQGTKLEIK
notes: 2B8 HC1-2/1A2 LC2-2
B16: hu118 (antibody, V domains shown)
VH: QVQLVQSGAEVKKPGASVKVSCKASGYTFTDYNMHWVRQAPGQGLEWMGNIYPYNGGTVYNQKFNNRVTLTVDTSSSTAYMELRSLRSDDTAVYYCAREGLGGYWGQGTLVTVSS
VL: DIVLTQSPASLAVSPGQRATITCKASQNIDYDGYAYLNWYQQKPGQPPKVLIYSVFNLESGVPARFSGSGSGTDFTLTINPVEANDTANYYCQQSNEFPYTFGQGTKLEIK
notes: 2B8 HC1-2/1A2 LC2-1
B17: hu93 (antibody, V domains shown)
VH: QVQLVQSGAEVKKPGASVKVSCKASGYTFTDYNMHWVRQAPGQRLEWMGYVYPYNGGSAYNQKFKSRVTLTVDTSSSTAYMELSSLRSEDTAVYYCAREGLGGYWGQGTLVTVSS
VL: DIVLTQSPASLAVSPGQRATITCKASQNIDYDGYAYLNWYQQKPGQPPKVLIYSVFNLESGVPARFSGSGSGTDFTLTINPVEADDTANYYCQQSNEFPYTFGQGTKLEIK
notes: 2A2 HC-1/1A2 LC2-2
B18: hu170 (antibody, V domains shown)
VH: QVQLVQSGAEVKKPGASVKVSCKASGYTFTDYNMHWVRQAPGQGLEWMGYISPYNGGTAYNQKFKFRVTLTVDTSSSTAYMELSRLRSDDTVVYYCAREGLGGYWGQGTLVTVSS
VL: DIVLTQSPASLAVSPGQRATITCKASQNIDYDGYAYLNWYQQKPGQPPKVLIYSVFNLESGVPARFSGSGSGTDFTLTINPVEANDTANYYCQQSNEFPYTFGQGTKLEIK
notes: 3E5 HC-3/1A2 LC2-1
B19: hu137 (antibody, V domains shown)
VH: QVQLVQSGAEVKKPGASVKVSCKASGYTFTDYNMHWVRQAPGQGLEWMGNIYPYNAGTVYNQKFNNRVTLTVDTSSSTAYMELSRLRSDDTAVYYCAREGLGGYWGQGTLVTVSS
VL: DIVLTQSPASLAVSPGQRATITCKASQNIDFDGYAYMNWYQQKPGQPPKVLIYSVFNLESGVPARFSGSGSGTDFTLTINPVEADDTANYYCQQSHEVPYTFGQGTKLEIK
notes: 2B8 HC1-3/1F5 LC1-3

Biological target: T1, Biotin-huCGRPaSA
Assay: ELISA, supernatant; relative to chimeric C245
Experimental: Biotin CGRPaSA was diluted with PBS (Hyclone) to 1.0 μg/mL, and the dilution was added to a microplate at 100 μL/well. The plate was let stand in an incubator at 37° C. and coated for 90 min and then washed, and 2% BSA was added to the plate at 200 μL/well. The plate was incubated in an incubator at 37° C. for 90 min and then washed. The humanized antibodies in Table 8 and the reference antibody (chimeric antibody C245) were diluted to 1000 ng/mL with a diluent (2% BSA) with a dilution factor of not more than 10. Then, the chimeric antibodies and the reference antibody were serially 2.5-fold diluted on a sample dilution plate. All the chimeric antibody solutions and the reference antibody solution were added into plates at 100 μL/well, and the plates were incubated in a thermostat incubator at 37° C. for 60 min and washed. An HRP-conjugated goat anti-human antibody IgG (manufacturer: Sigma, Cat. No. A0170; Fc specificity) was diluted 5000-fold with 2% BSA and added into the plates at 100 μL/well, and the plates were incubated in the thermostat incubator at 37° C. for 60 min and washed. Chromogenic reagent TMB was carefully added at 100 μL/well to avoid bubbles, and the system was incubated at 37° C. for 15 min away from light for chromogenic reaction. Finally, a 2 M hydrochloric acid solution was added at 100 μL/well to stop the reaction while avoiding bubbles, and the plates were read on a microplate reader within 10 min (wavelength: 450/620 nm).

| Binder | Relative binding activity, % |
| --- | --- |
| B1 | 99% |
| B2 | 108% |
| B3 | 71% |
| B4 | 26% |
| B5 | 31% |
| B6 | 32% |
| B7 | 65% |
| B8 | 63% |
| B9 | 15% |
| B10 | 101% |
| B11 | 38% |
| B12 | 78% |
| B13 | 46% |
| B14 | 96% |
| B15 | 51% |
| B16 | 60% |
| B17 | 45% |
| B18 | 75% |
| B19 | 93% |
